Reference: patent US20180244746A1 (INSERM INSTITUT NATIONAL DE LA SANT ET DE LA RECHERCHE M …, published 2018)
Values belong to the binder of their own block, whether it stands above or below them.

How the values were obtained:
[1] = target: T1, recombinant HLA-A2 molecules (human); assay: stability measurement of recombinant HLA-A2 molecules complexed with the peptide (method not described; data not shown)
T1 construct: also called HLA-A*02:01

[2] = target: T1, recombinant HLA-A2 molecules; assay: affinity measurement of recombinant HLA-A2 molecules complexed with the peptide (method not described; data not shown); ZnT8186-194 (…), the shorter epitope
[3] = target: T2, zinc transporter (ZnT)8 peptide on HLA-A*02:01 (human); assay: multimer staining
T2 peptide: VAANIVLTV

[4] = target: T3, zinc transporter (ZnT)8 peptide on HLA-A*02:01 (human); assay: multimer staining
T3 peptide: AVAANIVLTV

[5] = target: T1, recombinant HLA-A2 molecules; assay: affinity measurement of recombinant HLA-A2 molecules complexed with the peptide (method not described; data not shown); ZnT8185-194 (…), the longer variant

- binding result [3]: recognises
- binding result [4]: recognises
B3: H328C 9B3 (TCR)
alpha TRAV21*01 TRAJ57*01 CDR3: CAVVRTQGGSEKLVF
beta TRBV9*01 TRBJ1-6*02 CDR3: CASSPWTGIPYNSPLHF

- t1/2 (stability of the peptide/HLA-A2 complex) [1]: 2.3 h
- Kd [5]: 0.207 µM
B5: ZnT8185-194 peptide (AVAANIVLTV) (peptide)
peptide: AVAANIVLTV
notes: Synthesized by ChinaPeptides at >85% purity

- binding result [3]: recognises
- binding result [4]: recognises
B6: H328C 9C8 (TCR)
alpha TRAV25*01 TRAJ26*01 CDR3: CAGILSYGQNFVF
beta TRBV25-1*01 TRBJ1-2*01 CDR3: CASSEVGQGFNGYTF

Continued, binder first:

B1: ZnT8186-194 peptide (VAANIVLTV) (peptide)
peptide: VAANIVLTV
notes: as for B5
- t1/2 (stability of the peptide/HLA-A2 complex) [1]: 1.8 h
- Kd [2]: 0.015 µM

B2: D010R 12B4 (TCR)
alpha TRAV1-2*01 TRAJ26*01 CDR3: CAVDNYGQNFVF
beta TRBV19*01 TRBJ2-3*01 CDR3: CASTGLAGTQYF
- binding result [3]: recognises

B4: D010R 1E2 (TCR)
alpha TRAV35*02 TRAJ36*01 CDR3: CAGTRNNLFF
beta TRBV19*01 TRBJ2-7*01 CDR3: CASGGSSYEQYF
- binding result [3]: recognises
- binding result [4]: recognises
